Laboratory results as given in patent US6706266, “Oncostatin M antagonists” (SmithKline Beecham Corporation).

Experiments:
[1] = molecular target: T1, oncostatin M (hOSM, mature) (Homo sapiens) (UniProt P13725); assay: filter; details: 2'-F pyrimidines; no affinity at any concentration tested
T1 sequence: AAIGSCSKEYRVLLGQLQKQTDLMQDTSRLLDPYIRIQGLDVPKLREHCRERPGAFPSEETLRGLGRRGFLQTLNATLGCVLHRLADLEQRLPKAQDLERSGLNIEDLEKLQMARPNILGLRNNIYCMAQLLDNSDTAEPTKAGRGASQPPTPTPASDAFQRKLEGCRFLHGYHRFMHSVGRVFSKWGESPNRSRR

[2] = molecular target: T2, oncostatin M (hOSM, mature) (Homo sapiens, UniProt P13725 SEQ:26-221); assay: competition; little activity in OSM/gp130 ELISA; details: tags: expressed in E. coli as GST fusion, GST removed by thrombin cleavage
T2 sequence: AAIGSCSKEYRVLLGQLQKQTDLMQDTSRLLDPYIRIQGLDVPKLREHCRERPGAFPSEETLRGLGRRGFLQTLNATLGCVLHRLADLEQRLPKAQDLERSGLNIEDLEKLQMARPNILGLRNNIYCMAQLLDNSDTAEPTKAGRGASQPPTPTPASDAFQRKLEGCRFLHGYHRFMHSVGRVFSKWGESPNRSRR
Protocol: (§1) Effect of Point Mutations on the Ability of OSM-GST to Compete with Wild Type OSM Binding to gp130-Fc in an ELISA Nunc Immunoplates (F6 Maxisorp, Life Technologies) were coated overnight (4° C.) with wild type OSM (produced according to Example 7a); 50 µl/well, 1 µg/ml in carbonate/bicarbonate buffer pH 9.4). Plates were washed (×6 in PBS 0.05% tween 20, using Skatron Plate washer), tapped dry and blocked to reduce non-specific binding (200 µl/well, 1% BSA/PBS). Following 1 h incubation (room temperature on a shaking platform) the plates were tapped dry and wild type (wt) or mutant OSM-GST from Example 9b added (50 µl/well, 20–0.002 µg/ml, titrated in 1%BSA/PBS). As a positive control polyclonal anti-human OSM antibody (R&D Systems) was also tested (20–0.02 µg/ml). […] Following a 5 h incubation (room temperature on a shaking platform) the plates were washed (×6) and developed using ELISA Amplification System (Life Technologies) as manufacturer's instructions and the OD measured at 490 nm. On each plate the total binding was determined by gp130-Fc/conjugate and OSM in the presence of 1%BSA/PBS, and non-specific binding by gp130-Fc/conjugate in absence of OSM, or conjugate binding to OSM in absence of gp130-Fc. […]

[3] = molecular target: T3, oncostatin M (murine OSM) (Mus musculus, UniProt P53347 P53347:23-206); assay: filter; no binding at any concentration tested; details: tags: R&D Systems
T3 sequence: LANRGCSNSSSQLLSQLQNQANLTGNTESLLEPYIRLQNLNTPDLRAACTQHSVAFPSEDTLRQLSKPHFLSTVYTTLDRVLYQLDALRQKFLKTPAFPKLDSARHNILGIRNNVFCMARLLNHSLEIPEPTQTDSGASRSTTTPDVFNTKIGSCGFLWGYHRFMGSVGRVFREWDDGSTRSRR

[4] = molecular target: T2, oncostatin M (hOSM, mature); assay: filter; SCHMK buffer (1 mM MgCl2, 1 mM CaCl2), 37 C; details: tags: expressed in E. coli as GST fusion, GST removed by thrombin cleavage
Protocol: Binding assays were carried out as described (Fitzwater and Polisky supra). […] Transcribed RNA was dephosphorylated using bacterial alkaline phosphatase for 30 min at 65° C. Dephosphorylated RNA was then 5' labelled using polynucleotide kinase and γ-^33P ATP. Radiolabelled RNA was gel purified, and incubated at 37° C. for 30 min with a serial dilution of hOSM in SCHMK buffer (45 μl OSM plus 5 μl radiolabelled RNA at 1000 cpm/μl). […] The filters were washed immediately with 5 ml SCHMK buffer, dried and counted in a liquid scintillation counter. […] The data sets were fitted by the non-linear least squares method using an EXEL software package.

TNF alpha (biotinylated) = TNF alpha (biotinylated) (UniProt P01375 P01375:77-233); assay: competition; no inhibition of TNFalpha binding to TNFR1; details: tags: biotin, NEN; chain copies: 3
TNF alpha (biotinylated), sequence (P01375 77-233, one chain of several): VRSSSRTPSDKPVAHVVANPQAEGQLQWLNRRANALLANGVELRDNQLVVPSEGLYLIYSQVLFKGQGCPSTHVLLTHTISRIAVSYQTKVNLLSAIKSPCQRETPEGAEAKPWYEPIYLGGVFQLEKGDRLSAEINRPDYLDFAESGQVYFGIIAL
Protocol: Nunc Immunoplates (F6 Maxisorp, Life Technologies) were coated overnight (4° C.) with sheep anti-human IgG (Serolabs) (50 µl/well, 1 µg/ml in PBS). Plates were washed (×6 in PBS 0.05% tween 20, using Skatron Plate washer), tapped dry and blocked to reduce non-specific binding (200µl/well, 1% BSA/PBS). […] As a positive control an anti-TNFR1 monoclonal antibody (R&D Systems) was included. […] Following a 2 h incubation (room temperature on a shaking platform) the plates were washed (×6) and developed using ELISA Amplification System (Life Technologies) according to the manufacturer's instructions and the OD measured at 490 nm.

[5] = molecular target: T2, oncostatin M (hOSM, mature); assay: competition; blocks OSM binding to gp130-Fc, ELISA; details: tags: expressed in E. coli as GST fusion, GST removed by thrombin cleavage
Protocol: as §1

GGGAGGACGAUGCGGNNNNNNNNNNNNNNNNNNNNNNNNNNNNNNNNNNNNNNNNCCGCAUCGUCCUCCC [40N7 starting random RNA pool]
Kd [1]: > 10000 nM

B1: ADR147 (aptamer raised to CD95 ligand) (ssRNA)
RNA: GGGAGGACGAUGCGGUUAUACUAAGCUGCGGUUAGCGACAGCCCUCCCUAGCGCCUCAGACGACUCGCCCGA
modifications: 2'-F pyrimidines
binding result [2]: no binding

B2: ADR58 (ssRNA)
RNA: GGGAGGACGAUGCGGAUCGCCCUGAACCGGCCCAGCAGACUGCUGACGGCACGAUCAGACGACUCGCCCGA
modifications: 2'-F C and U (2'-F pyrimidines), 2'-OH purines
binding result [3]: no binding
Kd [4]: 7 nM
binding result (TNF alpha (biotinylated)): no binding
IC50 [5]: ~30 pmol/well
